Assay results taken from article PMC10484670.
Numbering of substitutions follows the chain as printed. Names and notes keep the numbering of the source. Like-named read-outs stand apart in the source and are kept apart here.

T1: eIF4E (wheat, UniProt P29557 1-215)
T1 sequence: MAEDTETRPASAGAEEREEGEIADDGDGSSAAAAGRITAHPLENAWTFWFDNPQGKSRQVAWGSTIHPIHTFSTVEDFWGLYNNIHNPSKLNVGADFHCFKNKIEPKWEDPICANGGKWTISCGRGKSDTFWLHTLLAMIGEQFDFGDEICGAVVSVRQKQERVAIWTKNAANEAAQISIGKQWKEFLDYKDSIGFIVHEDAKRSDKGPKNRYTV

B1: PEMV2 A23G (structured_RNA)
RNA: GGUAGAACACGUGGGAUAGGGGGUGACCUUGUCGACCGGUUAUCGGUCCCCUGCUCCUUCGAGCUGGCAAGGCGCUCACAGGUUCUAC
B2: PEMV2 U52C:A26G (structured_RNA)
RNA: B1 RNA with G23A, A26G, U52C
B3: PEMV2 U17C:A18U (structured_RNA)
RNA: B1 RNA with U17C, A18U, G23A
B4: PEMV2 U65C (structured_RNA)
RNA: B1 RNA with G23A, U65C
B5: PEMV2 G21A (structured_RNA)
RNA: B1 RNA with G21A, G23A
B6: PEMV2 C50U (structured_RNA)
RNA: B1 RNA with G23A, C50U
B7: PEMV2 C49U (structured_RNA)
RNA: B1 RNA with G23A, C49U
B8: PEMV2 U24C (structured_RNA)
RNA: B1 RNA with G23A, U24C
B9: PEMV2 U52C (structured_RNA)
RNA: B1 RNA with G23A, U52C
B10: PEMV2 G21C (structured_RNA)
RNA: B1 RNA with G21C, G23A
B11: PEMV2 C49U:G19A (structured_RNA)
RNA: B1 RNA with G19A, G23A, C49U
B12: PEMV2 C50U:G20A (structured_RNA)
RNA: B1 RNA with G20A, G23A, C50U
B13: PEMV2 BL3-6 (crystallization, L1 mutant) (structured_RNA)
RNA: GGUAGAACACGUGGGAUAGGGGAUGACCUUGUCGACCGAAACACGGUCCCCUGCUCCUUCGAGCUGGCAAGGCGCUCACAGGUUCUACC

How the values were obtained:
eIF4E [1] = target: T1, eIF4E; assay: EMSA
eIF4E [2] = target: T1, eIF4E; assay: EMSA; remark: listed apart in the source

Row | Binder | binding result (eIF4E [1]) | binding result (eIF4E [2])
1 | B1 | no binding | –
2 | B2 | no binding | –
3 | B3 | binds | –
4 | B4 | no binding | –
5 | B5 | no binding | –
6 | B6 | no binding | –
7 | B7 | binds | –
8 | B8 | no binding | –
9 | B9 | no binding | –
10 | B10 | no binding | –
11 | B11 | no binding | –
12 | B12 | no binding | –
13 | B13 | – | binds
